According to the supplement of paper PMC9170038:

System: MS2 coat protein
Assay: apparent KD of MS2 coat protein; designed switch direction (-1 OFF switch, 1 ON switch): -1; higher = weaker reporter binding
In short: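 Stalled E. coli RNA polymerase transcribed designed RNA switches on Illumina chips, which were then titrated with SNAP-549-labelled MS2 coat protein, doubling from 0.7 or 1.5 nM to 3 µM. Steps lasted from 0.8–1.5 h at the lowest concentration to 10–20 min at the highest. The apparent KD is each design's median over clusters of curve-fitted normalised fluorescence.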

[1] = Eterna round: R95, input ligand: FMN 200 uM
[2] = Eterna round: R95, input ligand: microRNA oligo, concentration not stated
[3] = Eterna round: R95, input ligand: none
[4] = input ligand: microRNA oligo, concentration not stated

Sequence | apparent KD of MS2 coat protein [1] [nM] | apparent KD of MS2 coat protein [2] [nM] | apparent KD of MS2 coat protein [3] [nM] | apparent KD of MS2 coat protein (input ligand: FMN 200 uM) [nM] | apparent KD of MS2 coat protein [4] [nM] | apparent KD of MS2 coat protein (input ligand: none) [nM]
AAAAAACAAGGAUAUACGAAGGAGGGUUAUCUUAAUUUUUGACAUGAGGAUCACCCAUGUAGAAGGUGUUAAAA [JR_Exclusion2_Sub011] (puzzle: Exclusion 2) | 571 | 202 | 156 | – | – | –
CAGGACAGAGGAUAUACAUAGAUACAGAUUCAUGUAGAACUACAUGAGGAUCACCCAUGUAGAAGGCUGACCUG [Fiskers Ex 2 - 4] (Eterna round: R96, puzzle: Exclusion 2) | – | – | – | 311 | 23.5 | 31.5
CGGCGACAUGAGGAUCACCCAUGUGAGGAUAUGACGGGAAAAGCGUGAGCAGUUUGUGUCAGAAGGCGCGUAGG [salish99_ex1_r4_081] (Eterna round: R97, puzzle: Exclusion 1) | – | – | – | 20.2 | – | 28.7
GGAUCGUAUGUCAGGAUAUACCACUGGAUACAGUGGUAGAAGGGACAUGAGGAUCACCCAUGUGUUAUCGAUCC [Fiskers BMX 4 - 55] (puzzle: Brourd's mod of Exclusion 4) | – | 41.5 | – | – | – | –
UACAUGAGGAUCACCCAUGUUUUGUCGUGUAUGGUAUUUAUCUAGGAUAUCAAUUUGUUAAUUUAUGAGAAGGAGAAUAUUAAU [JMF's solution 69] (Eterna round: R96, puzzle: Exclusion NG 3) | – | – | – | – | 29.6 | –
GGUUGGCGAGGAUAUACAUGAGGAUCACCCAUGUGAGAGAAAAAAGUGAGGCAGAAAAGUAGAAGGCGCUGACG [salish99_ex3_r3_031] (puzzle: Exclusion 3) | 137 | 29.8 | 96.8 | – | – | –
AGCAUGGUAGGAUAUACGGAGCAUUAGGGUUUGUUAUGUGGACAUGAGGAUCACCCAUGUAGAAGGGCCGUGCA [Mat - Exclusion 2 - Mod of JL - D82] (puzzle: Exclusion 2) | – | 32.6 | – | – | – | –
AAACGGCAGGGAGGAUAUGCUUACCUGGGUCGUCUUCAAACAUGAGGAUCACCCAUGUAGUCGACGCAGAAGGCCCUCAAAGCC [JL ViennaUCT Ontiis mod] (Eterna round: R96, puzzle: Exclusion NG 2) | – | – | – | 144 | 18 | 18.6
AAGAAACAUGAGGAUCACCCAUGUGAGGAUAUGUAAAAGAAAAGAAAAUAAAGAAGAAACAGAAGGCACAAAGG [Mat - Mod of Hog D21] (puzzle: Exclusion 1) | 51.8 | 39.1 | 31.8 | – | – | –
UAUUAGUAAGGAUAUGAGUCGUAGAACAAUAGUACUACGUCUCAGAAGGUACAUGAGGAUCACCCAUGUUCAUU [Mod of Fisker 2 - Jieux - Exclusion 4] (Eterna round: R97, puzzle: Exclusion 4) | – | – | – | 27.4 | – | 19
CGAUGUCUUCGGACAUCGAACAUGAGGAUCACCCAUGUAAUGAGCAGAUCCUCAUGCAAGCUUUUUGCUCGUCUUAU [Sensor v3 - turn-off variant 1 - 45] (puzzle: Sensor v3, turn-off variant 1) | 14 | 9.69 | 16.6 | – | – | –
CAAAAGCGAGGAUAUACAUGAGGAUCACCCAUGUGGCAGCCAUGUAGGAGUGACGUCGGUAGAAGGCGCACCCU [Soaran] (puzzle: Exclusion 3) | – | 76.2 | – | – | – | –
CAUGAGGGAGGAUAUACAUGAGGAUCACCCAUGUAACUGGGAGUAGUUCUUCGUAGUCGUAGAAGGCCUGAGGG [Eternabot (L1) Solution 14] (Eterna round: R97, puzzle: Exclusion 3) | – | – | – | 242 | – | 723
UAAUACAAGUAAAGAUCCUACAUGAGGAUCACCCAUGUGCUCGUCUUGUAAAGUACUAUCACGAAAGUGAUAGUACU [Mat - Sensor v3 - turn-off var 1 - Eli Mod - D86] (puzzle: Sensor v3, turn-off variant 1) | 30.3 | 22 | 44.8 | – | – | –
GCACCAUGGCUUACUAGCCGUUAAACAUGAGGAUCACCCAUGUAGGAUAUGGUCUGGAUUACAGGCCAGAAGGGCGUAAGGUGC [JL Eli 026 mod] (Eterna round: R96, puzzle: Exclusion NG 3) | – | – | – | 15.9 | 13.1 | 19.8
CAGGACAGAGGAUAUACAUAGAUACAGAUUCAUGUAGAACUACAUGAGGAUCACCCAUGUAGAAGGCUGACCUG [Fiskers Ex 2 - 4] (puzzle: Exclusion 2) | – | 27.8 | – | – | – | –
AACAGGUCAGGAUAUACAUGAGGAUCACCCAUGUAGACUUCUAGUCUAUCGUGACUGUGUAGAAGGGACCUGAA [Exclusion 3 (MOD of #98 Marzena11)] (Eterna round: R97, puzzle: Exclusion 3) | – | – | – | 146 | – | 40.1

Sequence | apparent KD of MS2 coat protein [1] [nM] | apparent KD of MS2 coat protein [2] [nM] | apparent KD of MS2 coat protein [3] [nM] | apparent KD of MS2 coat protein (input ligand: FMN 200 uM) [nM] | apparent KD of MS2 coat protein [4] [nM] | apparent KD of MS2 coat protein (input ligand: none) [nM]
ACGUCCCAAGUCAGGAUAUAGGCCGGACAAAGGGACUAGAAGGGACAUGAGGAUCACCCAUGUGGGCAAAAGAC [Terarace] (puzzle: Brourd's mod of Exclusion 4) | 29.4 | 29.4 | 32 | – | – | –
AAUGCCAGAGGAUAUACAUGAGGAUCACCCAUGUUAAAUGAUCCUGUGCUAGAUGCACGUAGAAGGCUGUAAAA [EX3 A.8] (Eterna round: R97, puzzle: Exclusion 3) | – | – | – | 15.5 | – | 12.9
UAGAAGUCAGGAUAUCCAUGGCGGCACUUGCGUGGUGGCGUGGAGAAGGGACAUGAGGAUCACCCAUGUAAAGG [salish99-ex4-045] (Eterna round: R96, puzzle: Exclusion 4) | – | – | – | 192 | 63.1 | 100
GCCGAGUGAGGAUAUACAUGAGGAUCACCCAUGUAAACACGAAAGCAAGUGUCCCUCAGUAGAAGGCGCCUGGA [Aerusesxe] (puzzle: Exclusion 3) | – | 14.8 | – | – | – | –
AGCGAAUAAGUAGGAUAUGAGAAUAGAUAGAGCUCAGAAGGACUACAUGAGGAUCACCCAUGUAAAGUCUUGAGGCUGCGUGGU [Prohibition 14 - Jieux - Exclusion NG 1] (Eterna round: R96, puzzle: Exclusion NG 1) | – | – | – | 10.8 | 11.3 | 13.7
GAAGAAGAGAGAAAAGAAAACAUGAGGAUCACCCAUGUGAGAAGAUGAGGGUGUAGCAGGCUUUAUGCUCGUCUUAU (puzzle: Sensor v3, turn-off variant 1) | 27.5 | 78.5 | 27.9 | – | – | –
CGACCACAUGAGGAUCACCCAUGUCAGGAUAUGAGAGCCUUACGAAAGAGACGGCAGCUUAGAAGGGAUGCGGC [Eternabot (L1) Solution 74] (Eterna round: R97, puzzle: Exclusion 1) | – | – | – | 23.3 | – | 26.9
CGUGACUCAGGAUAUCUAUUAUGUCACAUGAGGAUCACCCAUGUCCAGCGAAAGCUGGAGGGAGAAGGGAGUCACG [Fiskers Ex 5 - 45] (puzzle: Exclusion 5) | – | 118 | – | – | – | –
AAUAACAGAGGAUAUACUAUUUUAUGUAUUUAUUAUUUUAAACAUGAGGAUCACCCAUGUAGAAGGCUGAUUAA [JMF 42] (puzzle: Exclusion 2) | – | 30.8 | – | – | – | –
CAGCUGAAAGUCAGGAUAUCUAGAGCGAUAGCUCUAGAGAAGGGACAUGAGGAUCACCCAUGUGGUCACAGCUG [BmEx4/5-A4] (Eterna round: R97, puzzle: Brourd's mod of Exclusion 4) | – | – | – | 169 | – | 648
GGUUGUUGUUUCCGUUCUUACAUGAGGAUCACCCAUGUUUCUUGUCGUGCUCGCGUUGCUCGUCUGUCUGUCUGUUG [salish99_TOv1_r3_072] (puzzle: Sensor v3, turn-off variant 1) | 55.7 | 36.2 | 63 | – | – | –
GUCAGCUCGUGAGGAUAUACAUGAGGAUCACCCAUGUGAUCAAUAGCAGCUUCGGCUGCAAUAAUGUAGAAGGCACGAGCUGAC [ENG2/8-C] (Eterna round: R96, puzzle: Exclusion NG 2) | – | – | – | 60.5 | 76.2 | 144
AAUAACUGAGGAUAUACUAUAAUAUGAAUAAAAUAAAUAAAACAUGAGGAUCACCCAUGUAGAAGGCAGAAUAA [JMF's Not so obvious solution 9] (puzzle: Exclusion 2) | 23.2 | 17.8 | 24.1 | – | – | –
AGAUAGUGGUGAGGAUAUCAGAAUAGAAAGAAAUGAGAAGGCACACAUGAGGAUCACCCAUGUGAGGUCUUGAGACUACAUGGU [Prohibition 40 - Jieux - Exclusion NG 1] (Eterna round: R96, puzzle: Exclusion NG 1) | – | – | – | 21.2 | 12.5 | 17.3
UCGCUCCGUGUAGGAUAUCGCCGUUCUAUUCGGCGAGAAGGACAUGAGGAUCACCCAUGUAUGUUAUUAUCACGCGUGGCGCGC [Design 56] (Eterna round: R96, puzzle: Exclusion NG 1) | – | – | – | 18.8 | 8.79 | 15.4
GACGCUGACCGAGGAUAUACAAUAAAACAACAAACACCUCGUGUCAGAACAUGAGGAUCACCCAUGUAGAAGGCGGCAGGUCUA [Teateus] (Eterna round: R96, puzzle: Exclusion NG 2) | – | – | – | – | 31.6 | –
UCCAACCCUGUGAGGAUAUCGUCCAUUUUUUGUUACGAGAAGGCACAUGAGGAUCACCCAUGUUUUUUAUUUUU [JR_BMOE4_Sub079] (puzzle: Brourd's mod of Exclusion 4) | – | 23.8 | – | – | – | –
